According to patent publication US20170355757A1 (Regeneron, published 2017):

Key:
human C5 R885C-mmh [1] = molecular target: T1, human C5 R885C-mmh (human, UniProt P01031 19-1676); test: SPR, mAb captured via anti-hFc, 37C
T1 construct: also called human C5 variant R885C
Summary of the method: (§1)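 Antibodies captured on anti-human Fc surface in HBST (HEPES pH 7.4, 3 mM EDTA); C5 reagents (commercial human C5 or myc-myc-His-tagged variants) associated 3 min, dissociated 8 min, at 25 °C or 37 °C. Sensorgrams fitted 1:1; KD = kd/ka, t½ = ln2/(60×kd).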

monkey C5-mmh = molecular target: T2, monkey C5-mmh (monkey, UniProt P01031 19-1676 (human entry), limits assumed); test: SPR, mAb captured via anti-hFc, 37C
T2 construct: Recombinant monkey C5 with a C-terminal myc-myc-hexahistidine tag
T2 chain: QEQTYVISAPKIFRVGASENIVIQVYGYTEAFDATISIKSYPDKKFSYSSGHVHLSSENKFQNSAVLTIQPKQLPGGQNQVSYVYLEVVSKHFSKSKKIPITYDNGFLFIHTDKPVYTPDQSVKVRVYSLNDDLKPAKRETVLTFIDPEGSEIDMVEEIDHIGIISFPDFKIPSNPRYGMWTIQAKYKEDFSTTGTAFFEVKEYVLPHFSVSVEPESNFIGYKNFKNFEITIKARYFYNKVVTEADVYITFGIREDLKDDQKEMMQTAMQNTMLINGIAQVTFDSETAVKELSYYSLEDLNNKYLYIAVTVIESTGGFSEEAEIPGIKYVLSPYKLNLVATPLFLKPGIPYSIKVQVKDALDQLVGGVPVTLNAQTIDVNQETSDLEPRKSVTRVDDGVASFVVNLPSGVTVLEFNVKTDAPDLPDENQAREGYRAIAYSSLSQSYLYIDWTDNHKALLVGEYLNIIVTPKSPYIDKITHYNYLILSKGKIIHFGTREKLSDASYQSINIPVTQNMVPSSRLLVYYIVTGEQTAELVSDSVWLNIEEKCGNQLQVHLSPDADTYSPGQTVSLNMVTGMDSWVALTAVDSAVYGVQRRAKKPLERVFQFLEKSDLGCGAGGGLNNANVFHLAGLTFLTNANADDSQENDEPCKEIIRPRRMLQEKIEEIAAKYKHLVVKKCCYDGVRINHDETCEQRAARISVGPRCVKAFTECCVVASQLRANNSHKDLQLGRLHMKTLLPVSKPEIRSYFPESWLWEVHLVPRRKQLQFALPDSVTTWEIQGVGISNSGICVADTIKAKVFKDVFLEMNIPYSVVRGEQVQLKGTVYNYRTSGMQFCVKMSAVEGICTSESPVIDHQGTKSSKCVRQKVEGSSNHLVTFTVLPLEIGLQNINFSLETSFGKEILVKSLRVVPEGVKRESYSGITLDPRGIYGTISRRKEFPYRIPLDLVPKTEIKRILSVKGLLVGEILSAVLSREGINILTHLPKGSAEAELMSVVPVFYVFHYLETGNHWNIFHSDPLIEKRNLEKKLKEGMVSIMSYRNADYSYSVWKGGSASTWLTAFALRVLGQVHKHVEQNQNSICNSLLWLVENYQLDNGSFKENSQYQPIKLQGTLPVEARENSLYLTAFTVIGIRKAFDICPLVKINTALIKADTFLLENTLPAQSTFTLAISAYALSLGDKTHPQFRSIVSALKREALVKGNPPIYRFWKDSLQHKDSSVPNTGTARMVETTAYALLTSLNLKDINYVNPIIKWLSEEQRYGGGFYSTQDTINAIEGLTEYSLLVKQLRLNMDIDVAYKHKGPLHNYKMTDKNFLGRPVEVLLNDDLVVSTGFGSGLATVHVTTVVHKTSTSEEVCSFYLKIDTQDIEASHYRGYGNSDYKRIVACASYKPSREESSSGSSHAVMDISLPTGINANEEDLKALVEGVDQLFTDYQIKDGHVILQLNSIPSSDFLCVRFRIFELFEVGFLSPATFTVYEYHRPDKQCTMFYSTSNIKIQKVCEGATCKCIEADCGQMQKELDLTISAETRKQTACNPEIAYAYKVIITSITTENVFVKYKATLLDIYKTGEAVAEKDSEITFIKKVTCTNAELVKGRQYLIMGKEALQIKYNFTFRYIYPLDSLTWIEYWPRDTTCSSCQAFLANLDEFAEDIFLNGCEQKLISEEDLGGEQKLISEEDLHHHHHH
Summary of the method: as §1

human C5 R885H-mmh [2] = molecular target: T3, human C5 R885H-mmh (human, UniProt P01031 19-1676); test: SPR, mAb captured via anti-hFc, 37C
T3 construct: also called human C5 variant R885H
Summary of the method: as §1

human C5 = molecular target: T4, human C5 (human, UniProt P01031 19-1676); test: SPR, mAb captured via anti-hFc, dissociation at pH7.4 vs pH6.0, 25C
T4 construct: Bought human C5 (EMD #204888, said elsewhere to be purified from plasma); also called hC5; complement component 5
Summary of the method: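 Anti-C5 mAbs (human IgG4 Fc) captured on an amine-coupled mouse anti-human Fc surface; recombinant C5 dissociation followed by Biacore T200 in PBS-T (0.01M phosphate, 0.15M NaCl, 0.05% Tween-20) at pH7.4 or pH6.0. Dissociative half-life (t½) calculated from kd.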

human C5 R885C-mmh [3] = molecular target: T1, human C5 R885C-mmh; test: SPR, mAb captured via anti-hFc, 25C
Summary of the method: as §1

human C5 R885H-mmh [4] = molecular target: T3, human C5 R885H-mmh; test: SPR, mAb captured via anti-hFc, 25C
Summary of the method: as §1

B1: H4H12177P2 (antibody, human IgG4, V domains shown)
VH: EVQLVESGGGVVQRGESLRLSCSASDFIFKDYAMYWVRQIPGKGLEWISLISGDGDTTWYGDSVKGRFTISRDNNENSLFLQMNDLRTEDTAMYYCARDMGWNFFQLQYWGQGTLVTVSS
VL: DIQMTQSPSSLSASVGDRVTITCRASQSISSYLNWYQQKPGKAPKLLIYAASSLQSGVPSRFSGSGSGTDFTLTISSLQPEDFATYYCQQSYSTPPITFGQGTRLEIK
notes: Human IgG4 Fc with S108P hinge mutation (H4H)
For B1, the “100 nM Human C5 R885C-mmh Bound (RU)” value (human C5 R885C-mmh [1]) was 31 RU, the Kd (human C5 R885C-mmh [1]) was 47.6 nM and the koff (human C5 R885C-mmh [1]) was 0.00507 s⁻¹. The kon (human C5 R885C-mmh [1]) was 107000 M⁻¹ s⁻¹, the t1/2 (human C5 R885C-mmh [1]) was 2 min and the “100 nM monkey C5-mmh Bound (RU)” value (monkey C5-mmh) was 27 RU. For the same binder, the Kd (monkey C5-mmh) was 47.7 nM, the koff (monkey C5-mmh) was 0.00717 s⁻¹ and the kon (monkey C5-mmh) was 150000 M⁻¹ s⁻¹. The t1/2 (monkey C5-mmh) was 2 min, the “100 nM Human C5 R885H-mmh Bound (RU)” value (human C5 R885H-mmh [2]) was 51 RU and the Kd (human C5 R885H-mmh [2]) was 10 nM. The koff (human C5 R885H-mmh [2]) was 0.00276 s⁻¹, the kon (human C5 R885H-mmh [2]) was 276000 M⁻¹ s⁻¹ and the t1/2 (human C5 R885H-mmh [2]) was 4 min. The “t1/2 Ratio pH7.4/pH6.0” value (human C5) was at most 0.5, the “100 nM Human C5 R885C-mmh Bound (RU)” value (human C5 R885C-mmh [3]) was 177 RU and the Kd (human C5 R885C-mmh [3]) was 13.2 nM. For the same binder, the koff (human C5 R885C-mmh [3]) was 0.00132 s⁻¹, the kon (human C5 R885C-mmh [3]) was 100000 M⁻¹ s⁻¹ and the t1/2 (human C5 R885C-mmh [3]) was 9 min. The “100 nM Human C5 R885H-mmh Bound (RU)” value (human C5 R885H-mmh [4]) was 232 RU, the Kd (human C5 R885H-mmh [4]) was 4.01 nM and the koff (human C5 R885H-mmh [4]) was 0.000592 s⁻¹. It also gave a kon (human C5 R885H-mmh [4]) of 148000 M⁻¹ s⁻¹ and a t1/2 (human C5 R885H-mmh [4]) of 20 min.

B2: H4H12170P (antibody, human IgG4, V domains shown)
VH: QVQLVESGGGVVQPGRSLRLSCAASGFTFSGYGMHWVRQAPGKGLEWVALIWLDGSNDYYADSVKGRFTISRDNSKNTLYLQMNRLRAEDTAVYYCARDGPVAAIPDYWGQGTLVTVSS
VL: DIQMTQSPSTLSASVGDRVTITCRASQSISRWLAWYQLKPGKAPKLLIYKASSLESGVPSRFSGSGSGTDFTLTISSLQPDDFATYYCQQYNTYSYTFGQGTKLEIK
notes: as for B1
In the case of B2, the “100 nM Human C5 R885C-mmh Bound (RU)” value (human C5 R885C-mmh [1]) is reported as 61 RU, the Kd (human C5 R885C-mmh [1]) is reported as 2.05 nM and the koff (human C5 R885C-mmh [1]) is reported as 0.00087 s⁻¹. The kon (human C5 R885C-mmh [1]) was 424000 M⁻¹ s⁻¹, the t1/2 (human C5 R885C-mmh [1]) was 13 min and the “100 nM monkey C5-mmh Bound (RU)” value (monkey C5-mmh) was 60 RU. For the same binder, the Kd (monkey C5-mmh) was 1.67 nM, the koff (monkey C5-mmh) was 0.000871 s⁻¹ and the kon (monkey C5-mmh) was 521000 M⁻¹ s⁻¹. For the same binder, the t1/2 (monkey C5-mmh) was 13 min, the “100 nM Human C5 R885H-mmh Bound (RU)” value (human C5 R885H-mmh [2]) was 64 RU and the Kd (human C5 R885H-mmh [2]) was 1.5 nM. The koff (human C5 R885H-mmh [2]) was 0.000839 s⁻¹, the kon (human C5 R885H-mmh [2]) was 559000 M⁻¹ s⁻¹ and the t1/2 (human C5 R885H-mmh [2]) was 14 min. For the same binder, the “t1/2 Ratio pH7.4/pH6.0” value (human C5) was at most 0.5, the “100 nM Human C5 R885C-mmh Bound (RU)” value (human C5 R885C-mmh [3]) was 427 RU and the Kd (human C5 R885C-mmh [3]) was 0.447 nM. For the same binder, the koff (human C5 R885C-mmh [3]) was 0.00016 s⁻¹, the kon (human C5 R885C-mmh [3]) was 357000 M⁻¹ s⁻¹ and the t1/2 (human C5 R885C-mmh [3]) was 72 min. For the same binder, the “100 nM Human C5 R885H-mmh Bound (RU)” value (human C5 R885H-mmh [4]) was 442 RU, the Kd (human C5 R885H-mmh [4]) was 0.394 nM and the koff (human C5 R885H-mmh [4]) was 0.000161 s⁻¹. For the same binder, the kon (human C5 R885H-mmh [4]) was 409000 M⁻¹ s⁻¹ and the t1/2 (human C5 R885H-mmh [4]) was 72 min.
